Reference: patent US20240132578A1

Tests used:
[1] = biological target: WT JR-FL gp120 (HIV-1 JR-FL); assay: ELISA, antigen-coated wells, mAb titrated; EC50 by nonlinear regression
[2] = biological target: JR-FL gp120 ΔV1/ΔV2 (HIV-1 JR-FL); assay: as above
[3] = biological target: HIV-1 Env of isolate MGRM-A-003 (pseudovirus) (HIV-1); assay: cell-based or functional assay
[4] = biological target: HIV-1 Env of isolate 93UG077 (pseudovirus) (HIV-1); assay: cell-based or functional assay
[5] = biological target: HIV-1 Env of isolate 93IN905 (HIV-1); assay: cell-based or functional assay
[6] = biological target: HIV-1 Env of isolate MGRM-Chronic-B-017 (HIV-1); assay: cell-based or functional assay
[7] = biological target: HIV-1 Env of isolate THR0.18 (HIV-1); assay: cell-based or functional assay
[8] = biological target: HIV-1 Env of isolate MGRM-AG-012 (subtype AG) (HIV-1); assay: cell-based or functional assay
[9] = biological target: HIV-1 Env of isolate QH0692.42 (HIV-1); assay: cell-based or functional assay
[10] = biological target: HIV-1 Env of isolate MGRM-Chronic-B-023 (HIV-1); assay: cell-based or functional assay
[11] = biological target: HIV-1 Env of isolate 98IN022 (HIV-1); assay: cell-based or functional assay
[12] = biological target: HIV-1 Env of isolate 92WR020 (pseudovirus) (HIV-1); assay: cell-based or functional assay
[13] = biological target: HIV-1 Env of isolate 92WR021 (pseudovirus) (HIV-1); assay: cell-based or functional assay
[14] = biological target: HIV-1 Env of isolate TRJ04551.58 (HIV-1); assay: cell-based or functional assay
[15] = biological target: HIV-1 Env of isolate SC422661.8 (HIV-1); assay: cell-based or functional assay
[16] = biological target: HIV-1 Env of isolate 94UG103 (pseudovirus) (HIV-1); assay: cell-based or functional assay
[17] = biological target: HIV-1 Env of isolate VLGCB3 (HIV-1); assay: cell-based or functional assay
[18] = biological target: HIV-1 Env of isolate SF162 (HIV-1) (UniProt P19550); assay: cell-based or functional assay
[19] = biological target: HIV-1 Env of isolate 93WR029 (pseudovirus) (HIV-1); assay: cell-based or functional assay
[20] = biological target: HIV-1 Env of isolate MGRM-Chronic-B-011 (HIV-1); assay: cell-based or functional assay
[21] = biological target: HIV-1 Env of isolate 92UG046 (pseudovirus) (HIV-1); assay: cell-based or functional assay
[22] = biological target: HIV-1 Env of isolate MGRM-Chronic-B-012 (HIV-1); assay: cell-based or functional assay
[23] = biological target: HIV-1 Env of isolate TRO.11 (HIV-1); assay: cell-based or functional assay
[24] = biological target: HIV-1 Env of isolate JRCSF (HIV-1) (UniProt P20871); assay: cell-based or functional assay
[25] = biological target: HIV-1 Env of isolate 92WR024 (pseudovirus) (HIV-1); assay: cell-based or functional assay
[26] = biological target: HIV-1 Env of isolate MGRM-Chronic-B-024 (HIV-1); assay: cell-based or functional assay
[27] = biological target: HIV-1 Env of isolate MGRM-Chronic-B-003 (HIV-1); assay: cell-based or functional assay
[28] = biological target: HIV-1 Env of isolate MGRM-D-001 (pseudovirus) (HIV-1); assay: cell-based or functional assay
[29] = biological target: HIV-1 Env of isolate PVO.4 (HIV-1); assay: cell-based or functional assay
[30] = biological target: HIV-1 Env of isolate 97ZA012 (HIV-1); assay: cell-based or functional assay
[31] = biological target: HIV-1 92RW020 Env (HIV-1); assay: cell-based or functional assay
[32] = biological target: HIV-1 Env of isolate 93MW959 (HIV-1); assay: cell-based or functional assay
[33] = biological target: HIV-1 Env of isolate NL43 (HIV-1); assay: cell-based or functional assay
[34] = biological target: HIV-1 Env of isolate 92UG037 (pseudovirus) (HIV-1); assay: cell-based or functional assay
[35] = biological target: HIV-1 Env of isolate MGRM-Chronic-B-018 (HIV-1); assay: cell-based or functional assay
[36] = biological target: HIV-1 Env of isolate 92UG031 (pseudovirus) (HIV-1); assay: cell-based or functional assay
[37] = biological target: HIV-1 Env of isolate MGRM-Chronic-B-010 (HIV-1); assay: cell-based or functional assay
[38] = biological target: HIV-1 Env of isolate MGRM-Chronic-B-020 (HIV-1); assay: cell-based or functional assay
[39] = biological target: HIV-1 Env of isolate 92UG001 (pseudovirus) (HIV-1); assay: cell-based or functional assay

Substance	EC50 [1]	EC50 [2]	IC50 (µg/mL), pseudovirus neutralization [3]	IC50 (µg/mL), pseudovirus neutralization [4]	IC50 (µg/mL), pseudovirus neutralization [5]	IC50 (µg/mL), pseudovirus neutralization [6]	IC50 (µg/mL), pseudovirus neutralization [7]	IC50, pseudovirus neutralization [8]	IC50 (µg/mL), pseudovirus neutralization [9]	IC50 (µg/mL), pseudovirus neutralization [10]	IC50 (µg/mL), pseudovirus neutralization [11]	IC50 (µg/mL), pseudovirus neutralization [12]	IC50 (µg/mL), pseudovirus neutralization [13]	IC50 (µg/mL), pseudovirus neutralization [14]	IC50 (µg/mL), pseudovirus neutralization [15]	IC50 (µg/mL), pseudovirus neutralization [16]	IC50 (µg/mL), pseudovirus neutralization [17]	IC50 (µg/mL), pseudovirus neutralization [18]	IC50 (µg/mL), pseudovirus neutralization [19]	IC50 (µg/mL), pseudovirus neutralization [20]	other results
5329_C19 (PGT-136) (antibody)	0.2 µg/mL	0.3 µg/mL	> 50 µg/mL	> 50 µg/mL	0.011 µg/mL	> 50 µg/mL	> 50 µg/mL	> 50 µg/mL	> 50 µg/mL	> 50 µg/mL	13.6 µg/mL	2.33 µg/mL	> 50 µg/mL	> 50 µg/mL	> 50 µg/mL	> 50 µg/mL	> 50 µg/mL	0.482 µg/mL	> 50 µg/mL	> 50 µg/mL	IC50 (µg/mL), pseudovirus neutralization [21]: > 50 µg/mL; IC50 (µg/mL), pseudovirus neutralization [22]: 43.1 µg/mL; IC50 (µg/mL), pseudovirus neutralization [23]: 0.073 µg/mL; IC50 (µg/mL), pseudovirus neutralization [24]: > 50 µg/mL; IC50 (µg/mL), pseudovirus neutralization [25]: > 50 µg/mL; IC50 (µg/mL), pseudovirus neutralization [26]: > 50 µg/mL; IC50 (µg/mL), pseudovirus neutralization [27]: > 50 µg/mL; IC50 (µg/mL), pseudovirus neutralization [28]: > 50 µg/mL; IC50 (µg/mL), pseudovirus neutralization [29]: > 50 µg/mL; IC50 (µg/mL), pseudovirus neutralization [30]: > 50 µg/mL; IC50, pseudovirus neutralization [31]: 0.738 µg/mL; IC50 (µg/mL), pseudovirus neutralization [32]: > 50 µg/mL; IC50 (µg/mL), pseudovirus neutralization [33]: 27.7 µg/mL; IC50 (µg/mL), pseudovirus neutralization [34]: > 50 µg/mL; IC50 (µg/mL), pseudovirus neutralization [35]: > 50 µg/mL; IC50 (µg/mL), pseudovirus neutralization [36]: > 50 µg/mL; IC50 (µg/mL), pseudovirus neutralization [37]: > 50 µg/mL; IC50 (µg/mL), pseudovirus neutralization [38]: > 50 µg/mL; IC50 (µg/mL), pseudovirus neutralization [39]: > 50 µg/mL
5114_A19 (PGT-128) (antibody)	0.1 µg/mL	0.3 µg/mL	> 50 µg/mL	0.014 µg/mL	0.009 µg/mL	> 50 µg/mL	> 50 µg/mL	> 50 µg/mL	0.029 µg/mL	> 50 µg/mL	0.014 µg/mL	0.005 µg/mL	0.005 µg/mL	0.019 µg/mL	1.58 µg/mL	0.011 µg/mL	0.012 µg/mL	0.007 µg/mL	> 50 µg/mL	0.02 µg/mL	IC50 (µg/mL), pseudovirus neutralization [21]: > 50 µg/mL; IC50 (µg/mL), pseudovirus neutralization [22]: 0.026 µg/mL; IC50 (µg/mL), pseudovirus neutralization [23]: 0.018 µg/mL; IC50 (µg/mL), pseudovirus neutralization [24]: 0.003 µg/mL; IC50 (µg/mL), pseudovirus neutralization [25]: > 50 µg/mL; IC50 (µg/mL), pseudovirus neutralization [26]: > 50 µg/mL; IC50 (µg/mL), pseudovirus neutralization [27]: 0.007 µg/mL; IC50 (µg/mL), pseudovirus neutralization [28]: 0.138 µg/mL; IC50 (µg/mL), pseudovirus neutralization [29]: 0.005 µg/mL; IC50 (µg/mL), pseudovirus neutralization [30]: 0.019 µg/mL; IC50 (µg/mL), pseudovirus neutralization [32]: 0.045 µg/mL; IC50 (µg/mL), pseudovirus neutralization [33]: > 50 µg/mL; IC50 (µg/mL), pseudovirus neutralization [34]: 0.006 µg/mL; IC50 (µg/mL), pseudovirus neutralization [35]: 0.02 µg/mL; IC50 (µg/mL), pseudovirus neutralization [36]: > 50 µg/mL; IC50 (µg/mL), pseudovirus neutralization [37]: 0.004 µg/mL; IC50 (µg/mL), pseudovirus neutralization [38]: 0.007 µg/mL; IC50 (µg/mL), pseudovirus neutralization [39]: > 50 µg/mL
5345_I01 (PGT-137) (antibody)	0.1 µg/mL	0.2 µg/mL	> 50 µg/mL	> 50 µg/mL	0.042 µg/mL	> 50 µg/mL	> 50 µg/mL	> 50 µg/mL	> 50 µg/mL	> 50 µg/mL	0.408 µg/mL	0.005 µg/mL	3.52 µg/mL	> 50 µg/mL	> 50 µg/mL	> 50 µg/mL	3.36 µg/mL	3.41 µg/mL	> 50 µg/mL	> 50 µg/mL	IC50 (µg/mL), pseudovirus neutralization [21]: > 50 µg/mL; IC50 (µg/mL), pseudovirus neutralization [22]: > 50 µg/mL; IC50 (µg/mL), pseudovirus neutralization [23]: 9.35 µg/mL; IC50 (µg/mL), pseudovirus neutralization [24]: > 50 µg/mL; IC50 (µg/mL), pseudovirus neutralization [25]: > 50 µg/mL; IC50 (µg/mL), pseudovirus neutralization [26]: > 50 µg/mL; IC50 (µg/mL), pseudovirus neutralization [27]: > 50 µg/mL; IC50 (µg/mL), pseudovirus neutralization [28]: > 50 µg/mL; IC50 (µg/mL), pseudovirus neutralization [30]: > 50 µg/mL; IC50 (µg/mL), pseudovirus neutralization [32]: > 50 µg/mL; IC50 (µg/mL), pseudovirus neutralization [33]: 17.4 µg/mL; IC50 (µg/mL), pseudovirus neutralization [34]: > 50 µg/mL; IC50 (µg/mL), pseudovirus neutralization [35]: > 50 µg/mL; IC50 (µg/mL), pseudovirus neutralization [36]: > 50 µg/mL; IC50 (µg/mL), pseudovirus neutralization [37]: > 50 µg/mL; IC50 (µg/mL), pseudovirus neutralization [38]: 32.9 µg/mL; IC50 (µg/mL), pseudovirus neutralization [39]: > 50 µg/mL
